{"source": "patent US20090291083A1", "about": "“BARB4 TARGET, ANTIBODY DESIGNATED BARB4, BARB4 RELATED ANTIBODIES, AND METHODS OF MAKING AND USING SAME” (PATRYS LIMITED, priority 2008, published 2009)", "molecules": {"B1": {"name": "BARB4: human IgG antibody produced by hybridoma DSMZ Deposit No. DSM ACC2876; heavy chain SEQ ID NOs:1, 3, 5, 7, light chain SEQ ID NO:9 (antibody, V domains shown)", "VH": "QVQLVESGGGVVQPGRSLRLSCAASGFRFTTHGMHWVRQAPGKGLEWVAVISYNGRNKYYADYVNGRFTISRDDSRDTVFLQMNSLRPEDTAMYYCAKVRGDGYGDYGYFDYWGHGTLVSVSS", "VL": "QSALTQPRSVSGSPGQSVTISCTGTYNYVSWYQQHPGKAPKLMIFDVSRRSSGVPDRFSGSKSGNTASLTISGLQAEDEADYYCCSYGGTYLYVFGTGTTVTVLGQ"}}, "key": {"A549": {"test_system": "A549", "test": "FACS analysis of cell surface binding, BARB4 and commercial TAF 15 antibody", "design": "species or system human", "details": "BARB4 100 ug/ml, TAF 15 antibody 25 μg/ml", "method": "(§1) To further validate BARB4 target protein TAF 15, BARB4 and a commercial TAF 15 antibody (anti-human TAFII p68, Santa Cruz Biotechnology, sc-81121) were analyzed for binding to BxPC-3, HEK 293, A549 and HeLa cell lines. In brief, cells were trypsinized with cell dissociation solution (Sigma C5789), resuspended in complete medium (RPMI 1640, PAA, E15-039, 10% Fetal bovine serum, PAA, A15-151 and 1% Glutamine, PAA, M11-004) and set on 2×10^5/ml. After 30 minutes on ice, cells were dispersed at 1 ml per FACS-tube and washed once with ice-cold PBS by centrifugation with 500 g and 4° C. Staining was done with BARB4 (100 ug/ml) or the commercial TAF 15 (25 μg/ml) IgG antibodies, control IgGs (IgG lambda, or mouse IgG), or without antibody in 200 μl PBS. Cells were incubated with 25 μg/ml antibody in 100 μl for 30 minutes on ice, then washed with ice cold PBS and secondary antibody (anti mouse IgG-FITC, dianova 115-095-008) was applied at a dilution of 1:50 in 200 μl per tube. After another 30 minutes of incubation in the dark, cells were washed twice with PBS and analyzed by FACS. […] BARB4 target protein TAF 15 validation was then analyzed by immunoprecipitation of MKNcell extracts with BARB4 and subsequent Western blotting with either BARB4 or anti-TAF 15 antibodies (Biomol, A300-308A; or Aviva, ARP30111_T100)."}, "BxPC-3": {"test_system": "BxPC-3", "test": "FACS analysis of cell surface binding, BARB4 and commercial TAF 15 antibody", "design": "species or system human", "details": "BARB4 100 ug/ml, TAF 15 antibody 25 μg/ml", "method": "as §1"}, "HEK 293": {"test_system": "HEK 293", "test": "FACS analysis of cell surface binding, BARB4 and commercial TAF 15 antibody", "details": "BARB4 100 ug/ml, TAF 15 antibody 25 μg/ml", "method": "as §1"}, "HeLa": {"test_system": "HeLa", "test": "FACS analysis of cell surface binding, BARB4 and commercial TAF 15 antibody", "details": "BARB4 100 ug/ml, TAF 15 antibody 25 μg/ml", "method": "as §1"}, "TAF 15": {"test_system": "TAF 15", "test": "Immunoprecipitation of cell extracts with BARB4 and Western blotting", "type": "binding, human", "details": "MKN cell extracts", "method": "as §1, with “ARP30111_T100). […]” for “ARP30111_T100).”"}}}
{"molecule": "B1", "values": [{"measurement": "FACS binding to the cell surface", "setting": "A549", "value": "binding"}, {"measurement": "FACS binding to the cell surface", "setting": "BxPC-3", "value": "binding"}, {"measurement": "FACS binding to the cell surface", "setting": "HEK 293", "value": "binding"}, {"measurement": "FACS binding to the cell surface", "setting": "HeLa", "value": "binding"}, {"measurement": "detection of TAF15 in the immunoprecipitate by Western staining with BARB4 antibody", "setting": "TAF 15; FIG. 9B, assay conditions may not be optimized", "value": "did not appear to detect TAF15"}, {"measurement": "immunoprecipitation of TAF 15, Western staining with anti-TAF 15 antibodies", "setting": "TAF 15; FIGS. 9A and 9C", "value": "able to immunoprecipiate TAF 15"}]}
